Numbered stars: 1 amine (or outer) side, 2 acyl side, 3 side chain; on linkers, the order of the positions; unused ones are H or OH. Square brackets hold non-standard residues; d marks the D form. Side chains are listed from the residue outwards. Ends that are not written are not given here. * marks the point of attachment. C18 diacid = O=C(O)CCCCCCCCCCCCCCCCC(=O)*; γGlu = O=C(O)[C@H](CCC(=O)[*:2])N[*:1]; Ac4c = NC1(C(=O)O)CCC1; AEEA = NCCOCCOCC(=O)O; Aib = CC(C)(N)C(=O)O
How the values were obtained:
human GLP-1 receptor [1] = target: T1, human GLP-1 receptor (human, UniProt P43220 24-463); test: cell-based or functional assay
human glucagon receptor [2] = target: T2, human glucagon receptor (human, UniProt P47871 26-477); test: cell-based or functional assay
human GLP-1 receptor [3] = target: T1, human GLP-1 receptor; test: displacement of 125I-GLP-1(7-36)NH2, membranes with human GLP-1R, SPA
Description: (§1) The receptor binding of each compound to the human GLP-1 receptor was measured in a displacement binding assay. […] Each derivative was added in a series of concentrations to isolated membranes containing the human GLP-1 receptor and displacement of the labelled ligand was monitored. The receptor binding was reported as the concentration at which half of the labelled ligand was displaced from the receptor, the IC₅₀ value.

human glucagon receptor [4] = target: T2, human glucagon receptor; test: displacement of 125I-glucagon, membranes with human glucagon receptor, SPA
Description: as §1, with “human glucagon” for “human GLP-1”, “ligand is” for “ligand was”

T2 sequence (P47871 26-477): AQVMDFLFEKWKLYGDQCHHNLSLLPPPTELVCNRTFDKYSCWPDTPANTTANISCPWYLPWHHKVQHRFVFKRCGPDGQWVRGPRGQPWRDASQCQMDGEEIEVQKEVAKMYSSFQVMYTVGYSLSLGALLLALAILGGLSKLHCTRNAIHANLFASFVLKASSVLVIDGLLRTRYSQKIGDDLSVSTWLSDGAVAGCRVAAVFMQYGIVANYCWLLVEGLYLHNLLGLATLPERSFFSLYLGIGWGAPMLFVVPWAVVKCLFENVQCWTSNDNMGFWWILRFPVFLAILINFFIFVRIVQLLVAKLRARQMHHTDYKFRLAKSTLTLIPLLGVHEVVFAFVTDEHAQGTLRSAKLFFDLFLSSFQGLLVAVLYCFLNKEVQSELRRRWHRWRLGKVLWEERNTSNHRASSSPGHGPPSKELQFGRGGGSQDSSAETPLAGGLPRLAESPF

| Binder | EC50 GLP-1R, CRE luciferase reporter gene assay in BHK cells (human GLP-1 receptor [1]) [nM] | EC50 GlucR, CRE luciferase reporter gene assay in BHK cells (human glucagon receptor [2]) [nM] | IC50 (human GLP-1 receptor [3]) [nM] | IC50 (human glucagon receptor [4]) [nM] |
| --- | --- | --- | --- | --- |
| H[Aib]QGTFTSDVSRYLDARRAQDFVQWLLK([AEEA-AEEA-γGlu-γGlu-γGlu-C18 diacid])T-NH2 (N-terminus assumed; SMILES CC(C)C[C@H](NC(=O)[C@H](Cc1ccc(O)cc1)NC(=O)[C@H](CCCNC(=N)N)NC(=O)[C@H](CO)NC(=O)[C@@H](NC(=O)[C@H](CC(=O)O)NC(=O)[C@H](CO)NC(=O)[C@@H](NC(=O)[C@H](Cc1ccccc1)NC(=O)[C@@H](NC(=O)CNC(=O)[C@H](CCC(N)=O)NC(=O)C(C)(C)NC(=O)[C@@H](N)Cc1c[nH]cn1)[C@@H](C)O)[C@@H](C)O)C(C)C)C(=O)N[C@@H](CC(=O)O)C(=O)N[C@@H](C)C(=O)N[C@@H](CCCNC(=N)N)C(=O)N[C@@H](CCCNC(=N)N)C(=O)N[C@@H](C)C(=O)N[C@@H](CCC(N)=O)C(=O)N[C@@H](CC(=O)O)C(=O)N[C@@H](Cc1ccccc1)C(=O)N[C@H](C(=O)N[C@@H](CCC(N)=O)C(=O)N[C@@H](Cc1c[nH]c2ccccc12)C(=O)N[C@@H](CC(C)C)C(=O)N[C@@H](CC(C)C)C(=O)N[C@@H](CCCCNC(=O)COCCOCCNC(=O)COCCOCCNC(=O)CC[C@H](NC(=O)CC[C@H](NC(=O)CC[C@H](NC(=O)CCCCCCCCCCCCCCCCC(=O)O)C(=O)O)C(=O)O)C(=O)O)C(=O)N[C@H](C(N)=O)[C@@H](C)O)C(C)C) | 0.003 | 0.057 | 0.5 | 11.3 |
| H[Ac4c]HGTFTSDLSKYLESRRAQDFVQWLLK([Gly-Ser-Glu-Gly-Ser-γGlu-γGlu-C18 diacid])T-NH2 | 0.003 | 0.001 | 2.6 | 0.7 |
| H[Aib]HGTFTSDLSKYLESRRARDFVQWLLK([Gly-Ser-Glu-Gly-Ser-γGlu-γGlu-C18 diacid])T-NH2 | 0.004 | 0.002 | 0.2 | 0.1 |
| H[Ac4c]QGTFTSDLSKYLEERRARDFVQWLLK([Gly-Ser-Glu-Gly-Ser-γGlu-γGlu-C18 diacid])T-NH2 | 0.0058 | 0.113 | 0.2 | 3.9 |
| H[Aib]HGTFTSDLSKYLESRRAREFVAWLLK([γGlu-AEEA-AEEA-γGlu-γGlu-C18 diacid])T-NH2 (N-terminus assumed; SMILES CC(C)C[C@H](NC(=O)[C@H](Cc1c[nH]c2ccccc12)NC(=O)[C@H](C)NC(=O)[C@@H](NC(=O)[C@H](Cc1ccccc1)NC(=O)[C@H](CCC(=O)O)NC(=O)[C@H](CCCNC(=N)N)NC(=O)[C@H](C)NC(=O)[C@H](CCCNC(=N)N)NC(=O)[C@H](CCCNC(=N)N)NC(=O)[C@H](CO)NC(=O)[C@H](CCC(=O)O)NC(=O)[C@H](CC(C)C)NC(=O)[C@H](Cc1ccc(O)cc1)NC(=O)[C@H](CCCCN)NC(=O)[C@H](CO)NC(=O)[C@H](CC(C)C)NC(=O)[C@H](CC(=O)O)NC(=O)[C@H](CO)NC(=O)[C@@H](NC(=O)[C@H](Cc1ccccc1)NC(=O)[C@@H](NC(=O)CNC(=O)[C@H](Cc1c[nH]cn1)NC(=O)C(C)(C)NC(=O)[C@@H](N)Cc1c[nH]cn1)[C@@H](C)O)[C@@H](C)O)C(C)C)C(=O)N[C@@H](CC(C)C)C(=O)N[C@@H](CCCCNC(=O)CC[C@H](NC(=O)COCCOCCNC(=O)COCCOCCNC(=O)CC[C@H](NC(=O)CC[C@H](NC(=O)CCCCCCCCCCCCCCCCC(=O)O)C(=O)O)C(=O)O)C(=O)O)C(=O)N[C@H](C(N)=O)[C@@H](C)O) | 0.0195 | 0.0029 | 1.5 | 0.8 |
| H[Aib]QGTFTSDLSKYLDLKRAREFVQWLLK([γGlu-γGlu-AEEA-AEEA-γGlu-C18 diacid])T-NH2 | 0.009 | 0.0087 | 0.5 | 4 |
| H[Ac4c]QGTFTSDLSKYLDLKRAREFVQWLLK([Gly-Ser-Glu-Gly-Ser-γGlu-γGlu-C18 diacid])T-NH2 | 0.044 | 0.008 | 0.2 | 3.1 |
| H[Aib]QGTFTSDVSRYLDLRRAQDFVQWLLK([AEEA-AEEA-γGlu-γGlu-γGlu-C18 diacid])T-NH2 (N-terminus assumed; SMILES CC(C)C[C@H](NC(=O)[C@H](CC(=O)O)NC(=O)[C@H](CC(C)C)NC(=O)[C@H](Cc1ccc(O)cc1)NC(=O)[C@H](CCCNC(=N)N)NC(=O)[C@H](CO)NC(=O)[C@@H](NC(=O)[C@H](CC(=O)O)NC(=O)[C@H](CO)NC(=O)[C@@H](NC(=O)[C@H](Cc1ccccc1)NC(=O)[C@@H](NC(=O)CNC(=O)[C@H](CCC(N)=O)NC(=O)C(C)(C)NC(=O)[C@@H](N)Cc1c[nH]cn1)[C@@H](C)O)[C@@H](C)O)C(C)C)C(=O)N[C@@H](CCCNC(=N)N)C(=O)N[C@@H](CCCNC(=N)N)C(=O)N[C@@H](C)C(=O)N[C@@H](CCC(N)=O)C(=O)N[C@@H](CC(=O)O)C(=O)N[C@@H](Cc1ccccc1)C(=O)N[C@H](C(=O)N[C@@H](CCC(N)=O)C(=O)N[C@@H](Cc1c[nH]c2ccccc12)C(=O)N[C@@H](CC(C)C)C(=O)N[C@@H](CC(C)C)C(=O)N[C@@H](CCCCNC(=O)COCCOCCNC(=O)COCCOCCNC(=O)CC[C@H](NC(=O)CC[C@H](NC(=O)CC[C@H](NC(=O)CCCCCCCCCCCCCCCCC(=O)O)C(=O)O)C(=O)O)C(=O)O)C(=O)N[C@H](C(N)=O)[C@@H](C)O)C(C)C) | 0.005 | 0.049 | 1.5 | 16.2 |
| H[Aib]QGTFTSDLSKYLDLRRARDFVQWLLK([Gly-Ser-Glu-Ser-γGlu-γGlu-C18 diacid])T-NH2 | 0.027 | 0.0305 | 1.1 | 18.4 |
